# Results published in patent publication US20240123029A1 (HUMANITAS MIRASOLE S P A, published 2024).
# B1: Purified C-reactive protein (CRP) (other)
# chain: QTDMSRKAFVFPKESDTSYVSLKAPLTKPLKAFTVCLHFYTELSSTRGYSIFSYATKRQDNEILIFWSKDIGYSFTVGGSEILFEVPEVTVAPVHICTSWESASGIVEFWVDGKPRVRKSLKKGYTVGAEASIILGQEQDSFGGNFEGSQSLVGDIGNVNMWDFVLSPDEINTIYLGGPFSPNVLNWRALKYEVQGEVFTKPQLWP
# Molecular target: T1, SARS-CoV-2 Nucleocapsid protein, His Tag (SARS-CoV-2, UniProt P0DTC9 1-419)
# T1 construct: Bought
# Assay: ELISA, His-tagged viral protein captured on nickel plates (6.25-50 pmol/mL)
binder,measurement,value
B1,binding result,no binding (tested: CRP 3 µg/mL (25 nM))
